Patent publication US7064106B2, “Gene and use thereof” (Takeda Chemical Industries, Ltd., priority 1999, dated 2006)

Experiments:
[1] = biological target: T1, IRAP-His (Rattus norvegicus, UniProt P97629); experiment: Biochemical binding test of human MD36 (EIA plate, anti-Penta-His detection); conditions: IRAP-His 1.0 μg/ml and anti-Penta-His antibody both added to human MD36-coated wells
T1 construct: to construct plasmid pET21-IRAP (1–109); made in house
T1 sequence (P97629 1-109): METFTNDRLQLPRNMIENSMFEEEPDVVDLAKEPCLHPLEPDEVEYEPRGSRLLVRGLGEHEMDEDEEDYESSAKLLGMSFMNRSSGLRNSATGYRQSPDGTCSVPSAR
Source text: The C terminal part (partial peptide encoded by the partial base sequence of 2995–3674 from the 5′ end in SEQ ID NO:2) of SEQ ID NO:1 (full-length cDNA of MD36) was used as human MD36. This DNA fragment was inserted into pGEX expression vector (Amersham Pharmacia) to construct expression plasmid pGEX-MD36N4 capable of expressing the human MD36 partial protein in the form fused to GST (glutathione S-transferase) protein (GST-MD36N4 protein) under control of tac promoter. However, the protease recognition site in these junctions was removed by applying PCR. Using pGEX-MD36N4, E. coli BL21 was transformed and the transformants were cultured in LB medium in a conventional manner while inducing expression by IPTG. After culture, the cells collected were disrupted by sonication followed by centrifugation of the cell homogenate. As a result, most of the GST-MD36N4 protein were present in the insoluble fraction. […]
Protein-protein binding test was carried out by the procedure shown below. […] After the wells were again rinsed 3 times with TBS-T, the IRAP-His protein remained in the wells was quantitatively assayed using anti-Penta-His antibody (Qiagen, Inc.). […] IRAP-His (1.0 μg/ml) or anti-Penta-His antibody (diluted to 2000 fold) and both were added to the GST-MD364N-coated or uncoated wells, and after washing with TBS-T, the amount of His-Tag remained in the wells was quantified. […]

[2] = biological target: T2, C-terminal cytoplasmic domain (amino acid numbers 451–492) of mouse GLUT1 (Mus musculus, UniProt P17809); experiment: Yeast two-hybrid β-galactosidase assay, interaction with glucose transporter; format: cell-based; conditions: bait mouse GLUT1 (451–492); prey human MD36 cDNA 2995–3674 fused to GAL4-AD
T2 construct: the C-terminal cytoplasmic domain (amino acid numbers 451–492) of mouse GLUT1; expressed in transfected cells; host or cells: Saccharomyces cerevisiae Y190
T2 sequence (P17809 451-492): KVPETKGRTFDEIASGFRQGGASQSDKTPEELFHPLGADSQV
Protocol: (§1) As the bait sequence, the C-terminal cytoplasmic domain (amino acid numbers 468–510; SEQ ID NO:13 and SEQ ID NO:14) of mouse GLUT4 was used. For control, similar procedures were performed using the C-terminal cytoplasmic domain (amino acid numbers 451–492) of mouse GLUT1, which is the other protein of glucose transporters. These sequences were isolated from the respective cDNAs by PCR using pfu polymerase (manufactured by Stratagene, Inc.) and constructed to be expressed as the fusion proteins in the GAL4-BD sequence of pGBT9 (manufactured by Clontech, Inc.). On the other hand, human MD36 cDNA (base numbers 2995–3674 in SEQ ID NO:3) fused to GAL4-AD was used as the prey sequence. S. Cerevisiae Y190 was transformed by these plasmids, and the binding activity of MD36 to each of the glucose transporters was assayed in terms of the β-galactosidase activity.

[3] = biological target: T3, C-terminal cytoplasmic domain (amino acid numbers 468–510) of mouse GLUT4 (Mus musculus, UniProt P14142); experiment: as above; format: cell-based; conditions: bait mouse GLUT4 (468–510); prey human MD36 cDNA 2995–3674 fused to GAL4-AD
T3 construct: amino acid numbers 468–510; expressed in transfected cells; host or cells: Saccharomyces cerevisiae Y190
T3 sequence (P14142 467-509): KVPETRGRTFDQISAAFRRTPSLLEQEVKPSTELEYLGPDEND
Protocol: as §1

B1: MD36: human skeletal muscle-derived IRAP binding protein, SEQ ID NO:1; C-terminal part (bases 2995–3674) used in binding tests (protein, listed as Homo sapiens)
chain: MAGGEDRGDGEPVSVVTVRVQYLEDTDPFACANFPEPRRAPTCSLDGALPLGAQIPAVHRLLGAPLKLEDCALQVSPSGYYLDTELSLEEQREMLEGFYEEISKGRKPTLILRTQLSVRVNAILEKLYSSSGPELRRSLFSLKQIFQEDKDLVPEFVHSEGLSCLIRVGAAADHNYQSYILRALGQLMLFVDGMLGVVAHSDTIQWLYTLCASLSRLVVKTALKLLLVFVEYSENNAPLFIRAVNSVASTTGAPPWANLVSILEEKNGADPELLVYTVTLINKTLAALPDQDSFYDVTDALEQQGMEALVQRHLGTAGTDVDLRTQLVLYENALKLEDGDIEEAPGAGGRRERRKPSSEEGKRSRRSLEGGGCPARAPEPGPTGPASPVGPTSSTGPALLTGPASSPVGPPSGLQASVNLFPTISVAPSADTSSERSIYKLHQTASVWAPESPPVPQSPPGQARLEARFLENVAAAETEKQVALAQGRAETLAGAMPNEAGGHPDARQLWDSPETAPAARTPQSPAPCVLLRAQRSLAPEPKEPLIPASPKAEPIWELPTRAPRLSIGDLDFSDLGEDEDQDMLNVESVEAGKDIPAPSPPLPLLSGVPPPPPLPPPPPIKGPFPPPPPLPLAAPLPHSVPDSSALPTKRKTVKLFWRELKLAGGHGVSASRFGPCATLWASLDPVSVDTARLEHLFESRAKEVLPSKKAGEGRRTMTTVLDPKRSNAINIGLTTLPPVHVIKAALLNFDEFAVSKDGIEKLLTMMPTEEERQKIEEAQLANPDIPLGPAENFLMTLASIGGLAARLQLWAFKLDYDSMEREIAEPLFDLKVGMEQLVQNATFRCILATLLAVGNFLNGSQSSGFELSYLEKVSEVKDTVRRQSLLHHLCSLVLQTRPESSDLYSEIPALTRCAKVDFEQLTENLGQLERRSRAAEESLRSLAKHELAPALRARLTHFLDQCARRVAMLRIVHRRVCNRFHAFLLYLGYTPQAAREVRIMQFCHTLREFALEYRTCRERVLQQQQKQATYRERNKTRGRMITETEKFSGVAGEAPSNPSVPVAVSSGPGRGDADSHASMKSLLTSRPEDTTHNRRSRGMVQSSSPIMPTVGPSTASPEEPPGSSLPSDTSDEIMDLLVQSVTKSSPRALAARERKRSRGNRKSLRRTLKSGLGDDLVQALGLSKGPGLEV
Q: What does the source list for B1?
A: amount of His-Tag remained in the wells [1]: markedly detected; binding activity of MD36 to glucose transporter in terms of β-galactosidase activity [2]: scarcely bound; binding activity of MD36 to glucose transporter in terms of β-galactosidase activity [3]: bound
